Assay [1] has as its target human μ-opioid receptor (μOR), wild type, with HA signal sequence at the N terminus and LgBiT at the C terminus (modified pfastbac1) (human) (UniProt P35372). The experiment in a line: split reporter (BiFC, NanoBiT); NanoBiT on Sf9 membranes co-expressing μOR-LgBiT, Gαi1, Gβ1-SmBiT and Gγ2, in PBS pH 7.4; dose-response of fentanyl, 15 min at room temperature, luminescence; normalized to DAMGO.

Assay [2] shares this target. Kind of assay: split reporter (BiFC, NanoBiT); NanoBiT on Sf9 membranes co-expressing μOR-LgBiT, Gαi1, Gβ1-SmBiT and Gγ2, in PBS pH 7.4; dose-response of FD-3, 15 min at room temperature, luminescence; normalized to DAMGO.

Chain of Gi protein complex (Gαi1, Gβ1 with SmBiT at the C terminus, Gγ2) (P63096 whole entry): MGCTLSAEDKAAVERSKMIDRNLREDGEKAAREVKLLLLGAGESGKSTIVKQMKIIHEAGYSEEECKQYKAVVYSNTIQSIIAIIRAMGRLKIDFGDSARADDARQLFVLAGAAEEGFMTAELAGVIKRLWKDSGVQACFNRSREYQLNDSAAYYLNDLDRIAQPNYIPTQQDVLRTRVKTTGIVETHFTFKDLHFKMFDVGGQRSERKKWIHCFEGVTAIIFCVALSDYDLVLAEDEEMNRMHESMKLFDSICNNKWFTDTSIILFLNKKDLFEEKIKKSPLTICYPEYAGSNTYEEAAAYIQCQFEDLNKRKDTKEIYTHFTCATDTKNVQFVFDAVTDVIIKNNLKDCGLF
Chain of Gi protein complex (Gαi1, Gβ1 with SmBiT at the C terminus, Gγ2) (P62873 whole entry): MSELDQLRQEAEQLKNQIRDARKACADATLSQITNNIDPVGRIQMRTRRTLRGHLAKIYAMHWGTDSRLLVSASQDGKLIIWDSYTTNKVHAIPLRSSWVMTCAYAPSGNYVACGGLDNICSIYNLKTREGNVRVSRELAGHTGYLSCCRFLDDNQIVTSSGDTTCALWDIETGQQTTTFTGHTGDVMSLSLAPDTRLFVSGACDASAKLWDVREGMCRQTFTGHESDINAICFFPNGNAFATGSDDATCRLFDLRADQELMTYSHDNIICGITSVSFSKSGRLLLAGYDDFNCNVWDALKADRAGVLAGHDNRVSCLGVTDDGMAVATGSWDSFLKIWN
Chain of Gi protein complex (Gαi1, Gβ1 with SmBiT at the C terminus, Gγ2) (P59768 whole entry): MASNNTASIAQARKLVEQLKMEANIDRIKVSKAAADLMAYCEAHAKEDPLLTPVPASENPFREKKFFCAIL

Regarding “Gi protein complex (Gαi1, Gβ1 with SmBiT at the C terminus, Gγ2) (from UniProt P63096 1-354; P62873 1-340; P59768 1-71)”, the maximal Gi coupling (normalized to DAMGO) in assay [1] is above 55%. This substance came in with a maximal coupling efficiency relative to morphine in assay [2] of 67%.

The values are drawn from PMC7176292.
